Experimental data taken from patent US20200361992A1 (PROTAGONIST THERAPEUTICS, published 2020).
Starred links: 1 amine or outer side, 2 acyl side, 3 side chain; linkers in the order of their positions; H or OH if unused. Positions of bridges follow the written chain, without caps; N, C: chain ends. Non-standard residues stand in square brackets, D forms with d. Groups on a side chain read outwards from the residue. Primed or numbered codes have the meaning given here. *: point of attachment. PEG4′ = bifunctional PEG linker with 4 polyethylene glycol units; PEG12 = NCCOCCOCCOCCOCCOCCOCCOCCOCCOCCOCCOCCOCCC(=O)O; Phe(4-tBu) = CC(C)(C)c1ccc(C[C@H](N)C(=O)O)cc1; Docosanoyl = CCCCCCCCCCCCCCCCCCCCCC(=O)*; Dip = N[C@H](C(=O)O)C(c1ccccc1)c1ccccc1; γGlu = O=C(O)[C@H](CCC(=O)[*:2])N[*:1]; Palmitoyl = CCCCCCCCCCCCCCCC(=O)*; Pen = CC(C)(S)[C@H](N)C(=O)O; Isovaleryl = CC(C)CC(=O)*; PEG2′ = not defined here; PEG8′ = not defined here; Npc = nipecotic acid; Ahx = NCCCCCC(=O)O; Sar = CNCC(=O)O

T1: human ferroportin (SLC40A1) fused with GFP, stably expressed in HEK293 cells (human, UniProt Q9NP59 1-571)
T1 sequence (looked up): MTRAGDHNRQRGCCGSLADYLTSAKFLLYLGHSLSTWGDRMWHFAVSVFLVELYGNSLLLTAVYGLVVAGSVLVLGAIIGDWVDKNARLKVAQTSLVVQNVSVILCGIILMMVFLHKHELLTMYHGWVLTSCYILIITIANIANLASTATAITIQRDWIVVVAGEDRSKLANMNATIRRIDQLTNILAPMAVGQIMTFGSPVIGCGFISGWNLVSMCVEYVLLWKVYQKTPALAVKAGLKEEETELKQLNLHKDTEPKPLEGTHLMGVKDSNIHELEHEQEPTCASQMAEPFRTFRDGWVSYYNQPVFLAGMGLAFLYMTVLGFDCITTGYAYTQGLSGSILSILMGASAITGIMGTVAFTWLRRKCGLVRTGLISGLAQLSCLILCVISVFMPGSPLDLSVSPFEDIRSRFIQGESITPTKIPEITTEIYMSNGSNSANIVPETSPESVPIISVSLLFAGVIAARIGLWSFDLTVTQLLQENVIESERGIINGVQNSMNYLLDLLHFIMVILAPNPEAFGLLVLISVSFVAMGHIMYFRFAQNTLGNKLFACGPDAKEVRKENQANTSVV

B1: Compd ID 105 (peptide)
peptide: DTHXPCIKXKKC
modifications: Isovaleric acid-D-T-H-[Dpa]-P-C-I-[(D)Lys]-[b-homoPhe]-Lys[PEG11-Palm]-[(D)Lys]-[Cys]-NH2

Molecular target: T1, human ferroportin (SLC40A1) fused with …
Assay: cell-based or functional assay

Row | Binder | FPN IC50 [nM]
1 | Isovaleryl-DTHFPCI[dK]FK([PEG2′-PEG2′-C18 acid])KC-NH2 (disulfide 6-12 (inferred)) [Compd ID 89] | 27
2 | Isovaleryl-DTHFPCI[dK]FK([PEG12-Palmitoyl])K[Pen]-NH2 (disulfide 6-12 (inferred)) [Compd ID 98] | 40
3 | DTHFPCIKXKKC (Isovaleric acid-DTHFPCI-[(D)Lys]-[bhomoPhe]-Lys[PEG11-Palm]-K-[Cys]-NH2) [Compd ID 103] | 20
4 | Isovaleryl-DTHFPCI[dK]FK([PEG12-Palmitoyl])PRSKCK-NH2 (disulfide 6-15 (inferred)) [Compd ID 75] | 14
5 | DTHXPCIKFKKC (Isovaleric acid-D-T-H-[Dpa]-P-C-I-[(D)Lys]-F-Lys[PEG11-Palm]-K-[Cys]-NH2) [Compd ID 104] | 27
6 | Isovaleryl-DTHFPCI[dK]FK([PEG12-Palmitoyl])RC-NH2 (disulfide 6-12 (inferred)) [Compd ID 79] | 22
7 | Isovaleryl-DTHFPCI[dK]FK([PEG2′-PEG2′-Ahx-Palmitoyl])KC-NH2 (disulfide 6-12 (inferred)) [Compd ID 90] | 11
8 | Isovaleryl-DTHFPCI[dK]FK([PEG2′-Palmitoyl])KC-NH2 (disulfide 6-12 (inferred)) [Compd ID 87] | 15
9 | Isovaleryl-DTHFPCI[dK]FK([PEG12-Palmitoyl])PRSK[Sar]C-NH2 (disulfide 6-16 (inferred)) [Compd ID 74] | 9
10 | Isovaleryl-DTHFPCI[dK]FK([PEG2′-PEG2′-Palmitoyl])KC-NH2 (disulfide 6-12 (inferred)) [Compd ID 88] | 13
11 | Isovaleryl-DTHFPCI[dK]FK([Ahx-Palmitoyl])KC-NH2 (disulfide 6-12 (inferred)) [Compd ID 86] | 9
12 | DTHFPCIKXKKC (Isovaleric acid-DTHFPCI-[(D)Lys]-[Dpa]-Lys[PEG11-Palm]-K-[Cys]-NH2) [Compd ID 100] | 16
13 | Isovaleryl-DTHFPCI[dK]FK([PEG12-Palmitoyl])RC[dR]-NH2 (disulfide 6-12 (inferred)) [Compd ID 85] | 27
14 | Isovaleryl-DTHFPCI[dK]FK([PEG12-Palmitoyl])HC[dH]-NH2 (disulfide 6-12 (inferred)) [Compd ID 84] | 16
15 | Isovaleryl-DTHFPCI[dK]FK([PEG4′-Ahx-Palmitoyl])KC-NH2 (disulfide 6-12 (inferred)) [Compd ID 92] | 21
16 | DTHFPCIKFKXC (Isovaleric acid-DTHFPCI-[(D)Lys]-F-Lys[PEG11-Palm]-Dap-[Cys]-NH2) [Compd ID 99] | 21
17 | Isovaleryl-DTHFPCI[dK]FK([PEG12-Palmitoyl])PRSKC-NH2 (disulfide 6-15 (inferred)) [Compd ID 73] | 11
18 | DTHFPCIKXKKC (Isovaleric acid-DTHFPCI-[(D)Lys]-[Nal]-Lys[PEG11-Palm]-K-[Cys]-NH2) [Compd ID 102] | 17
19 | DTHFPCIKFKPC (Isovaleric acid-DTHFPCIKF-Lys[PEG11-Palm]-PC-NH2) [Compd ID 7] | 10
20 | Isovaleryl-DTHFPCI[dK]FK([PEG4′-γGlu-Palmitoyl])KC-NH2 (disulfide 6-12 (inferred)) [Compd ID 94] | 9
21 | Isovaleryl-DTHFPCI[dK]FK([PEG12-Palmitoyl])PRCK-NH2 (disulfide 6-13 (inferred)) [Compd ID 77] | 15

Row | Binder | FPN IC50 [nM]
22 | B1 | 31
23 | Isovaleryl-DTH[Dip][Npc]CI[dK]FK([PEG12-Palmitoyl])KC-NH2 (disulfide 6-12 (inferred)) [Compd ID 109] | 2
24 | Isovaleryl-DTHFPCI[dK]FK([PEG4′-Palmitoyl])KC-NH2 (disulfide 6-12 (inferred)) [Compd ID 91] | 14
25 | Isovaleryl-DTHFPCI[dK]FK([PEG12-Palmitoyl])KC[dK]-NH2 (disulfide 6-12 (inferred)) [Compd ID 83] | 40
26 | DTHFPCIKFKPRSKC (Isovaleric acid-DTHFPCIKF-Lys[PEG11-Palm]-PRSKC-NH2) [Compd ID 4] | 32
27 | Isovaleryl-DTHFPCI[dK]FK([PEG12-Palmitoyl])PRSC-NH2 (disulfide 6-14 (inferred)) [Compd ID 72] | 12
28 | Isovaleryl-DTHFPCI[dK]F[dK]([PEG12-Palmitoyl])[dK]C-NH2 (disulfide 6-12 (inferred)) [Compd ID 107] | 60
29 | Isovaleryl-DTHFPCIFK([PEG12-Palmitoyl])KC-NH2 (disulfide 6-11 (inferred)) [Compd ID 106] | 40
30 | Isovaleryl-DTHFPCI[dK]FK([PEG12-Palmitoyl])[dK]C-NH2 (disulfide 6-12 (inferred)) [Compd ID 82] | 13
31 | DTHFPCIKFKPRSC (Isovaleric acid-DTHFPCIKF-Lys[PEG11-Palm]-PRSC-NH2) [Compd ID 5] | 30
32 | DTHFPCIKFKPRC (Isovaleric acid-DTHFPCIKF-Lys[PEG11-Palm]-PRC-NH2) [Compd ID 6] | 17
33 | Isovaleryl-DTHFPCI[dK]FK([PEG12-Palmitoyl])CK-NH2 (disulfide 6-11 (inferred)) [Compd ID 78] | 17
34 | Isovaleryl-DTHFPCI[dK]FK([PEG12-Palmitoyl])[dR]C-NH2 (disulfide 6-12 (inferred)) [Compd ID 81] | 9
35 | Isovaleryl-DTH[Dip][Npc]CI[dK][Phe(4-tBu)]K([PEG12-Palmitoyl])KC-NH2 (disulfide 6-12 (inferred)) [Compd ID 110] | 3
36 | Isovaleryl-DTHFPCI[dK]FK(Docosanoyl)KC-NH2 (disulfide 6-12 (inferred)) [Compd ID 96] | 30
37 | Isovaleryl-DTHFPCI[dK]FK([PEG8′-Palmitoyl])KC-NH2 (disulfide 6-12 (inferred)) [Compd ID 95] | 28
38 | Isovaleryl-DTHFPCI[dK]FK([PEG12-Palmitoyl])KC-NH2 (disulfide 6-12 (inferred)) [Compd ID 80] | 14
39 | DTHFPCIKXKKC (Isovaleric acid-DTHFPCI-[(D)Lys]-[b-homoPhe]-Lys[PEG11-Palm]-K-[Cys]-NH2) [Compd ID 101] | 24
40 | Isovaleryl-DTHFPCI[dK]FK([PEG12-Palmitoyl])PPRSCK-NH2 (disulfide 6-15 (inferred); not fully specified) [Compd ID 76] | 16
41 | Isovaleryl-DTHFPCI[dK]FK([PEG4′-PEG4′-Palmitoyl])KC-NH2 (disulfide 6-12 (inferred)) [Compd ID 93] | 18
42 | Isovaleryl-DTHFPCI[dK]FK([PEG12-Palmitoyl])K[dC]-NH2 (disulfide 6-12 (inferred)) [Compd ID 97] | 41
